Measurements reported in US20200024330A1.

Columns and labels:
Assay in all cases: cell-based or functional assay
[1] = target: HIV-1 Env of isolate Du172 (HIV-1)
[2] = target: HIV-1 Env of isolate AC10 (HIV-1)
[3] = target: HIV-1 JR-FL Env E168K (pseudovirus) (HIV-1 JR-FL)
[4] = target: HIV-1 Env of isolate ZM214 (HIV-1)
[5] = target: HIV-1 Env of isolate CAAN (HIV-1)
[6] = target: HIV-1 Env of isolate REJ04541 (HIV-1)
[7] = target: HIV-1 Env of isolate DU422 (HIV-1)
[8] = target: HIV-1 Env of isolate ZM233 (HIV-1)
[9] = target: HIV-1 MGRM-A-010 Env (clade A pseudovirus) (HIV-1)
[10] = target: HIV-1 APV6 Env (clade B pseudovirus) (HIV-1)
[11] = target: HIV-1 93IN905 Env (clade C pseudovirus) (HIV-1)
[12] = target: HIV-1 92BR020 Env (clade B pseudovirus) (HIV-1)
[13] = target: HIV-1 92TH021 Env (clade AE pseudovirus) (HIV-1)
[14] = target: HIV-1 MGRM-C-026 Env (clade C pseudovirus) (HIV-1)
[15] = target: HIV-1 92TH021 Env (pseudovirus) (HIV-1)
[16] = target: HIV-1 Env of isolate MGRM-A-010 (clade A) (HIV-1)
[17] = target: HIV-1 Env of isolate CMU02 (clade AE) (HIV-1)
[18] = target: HIV-1 Env of isolate APV13 (clade B) (HIV-1)
[19] = target: HIV-1 Env of isolate 94UG103 (clade A) (HIV-1)
[20] = target: HIV-1 Env of isolate NL43 (clade B) (HIV-1)
[21] = target: HIV-1 Env of isolate JRFL (clade B) (HIV-1)
[22] = target: HIV-1 Env of isolate JRCSF (clade B) (HIV-1) (UniProt P20871)
[23] = target: aMLV envelope (negative control pseudovirus) (aMLV)
[24] = target: HIV-1 JR-CSF Env I423A (HIV-1 (isolate JR-CSF)) (UniProt P20871)
[25] = target: HIV-1 envelope glycoprotein (Env) of isolate JRFL, on pseudovirus (HIV-1)
[26] = target: HIV-1 envelope glycoprotein (Env) of isolate MGRM-Chronic-B-003, on pseudovirus (HIV-1)
[27] = target: HIV-1 envelope glycoprotein (Env) of isolate MGRM-Chronic-B-020, on pseudovirus (HIV-1)
[28] = target: HIV-1 Env of isolate QH0692.42 (subtype B) (HIV-1)
[29] = target: HIV-1 Env of isolate MG RM-A-013 (pseudovirus) (HIV-1)
[30] = target: HIV-1 Env of isolate 92WR021 (pseudovirus) (HIV-1)
[31] = target: HIV-1 Env of isolate MGRM-D-001 (subtype D), on pseudovirus (HIV-1)
[32] = target: HIV-1 Env of isolate MGRM-AE-002 (pseudovirus) (HIV-1)
[33] = target: HIV-1 Env of isolate MG RM-A-011 (pseudovirus) (HIV-1)
[34] = target: HIV-1 Env of isolate 92WR020 (pseudovirus) (HIV-1)
[35] = target: HIV-1 Env of isolate 98CN006 (subtype CRF08 BC), on pseudovirus (HIV-1)
[36] = target: HIV-1 Env of isolate 94UG103 (pseudovirus) (HIV-1)
[37] = target: HIV-1 Env of isolate 94 KE 105 (pseudovirus) (HIV-1)

Chain of 1443_C16 (PG16) (TCN-116) (antibody) (VH): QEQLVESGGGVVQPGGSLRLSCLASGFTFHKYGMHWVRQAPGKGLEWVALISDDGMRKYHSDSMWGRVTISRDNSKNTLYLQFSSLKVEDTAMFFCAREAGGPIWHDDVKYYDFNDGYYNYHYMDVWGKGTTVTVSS
Chain of 1443_C16 (PG16) (TCN-116) (antibody) (VL): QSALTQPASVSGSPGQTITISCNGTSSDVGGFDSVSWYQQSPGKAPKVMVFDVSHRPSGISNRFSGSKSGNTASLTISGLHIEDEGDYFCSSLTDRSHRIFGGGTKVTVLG

1443_C16 (PG16) (TCN-116) (antibody)
IC50, pseudovirus neutralization (TZM-bl) [1]: < 0.01 µg/mL | IC50, pseudovirus neutralization (TZM-bl) [2]: < 0.01 µg/mL | IC50 (ug/ml), neutralization [3]: 0.006 µg/mL | IC50, pseudovirus neutralization (TZM-bl) [4]: > 25 µg/mL | IC50, pseudovirus neutralization (TZM-bl) [5]: 6.37 µg/mL | IC50, pseudovirus neutralization (TZM-bl) [6]: < 0.01 µg/mL | IC50, pseudovirus neutralization (TZM-bl) [7]: 0.59 µg/mL | IC50, pseudovirus neutralization (TZM-bl) [8]: < 0.01 µg/mL

4877_D15 (PGT-122) (antibody)
Neutralization by PGT-122, IC50 [9]: 1.68 µg/mL | Neutralization by PGT-122, IC80 [9]: > 10 µg/mL | Neutralization by PGT-122, IC90 [9]: > 10 µg/mL | Neutralization by PGT-122, IC95 [9]: > 10 µg/mL | Neutralization by PGT-122, IC50 [10]: 0.0851 µg/mL | Neutralization by PGT-122, IC80 [10]: 0.351 µg/mL | Neutralization by PGT-122, IC90 [10]: 0.779 µg/mL | Neutralization by PGT-122, IC95 [10]: 1.55 µg/mL | Neutralization by PGT-122, IC50 [11]: 0.0138 µg/mL | Neutralization by PGT-122, IC80 [11]: 0.0505 µg/mL | Neutralization by PGT-122, IC90 [11]: 0.108 µg/mL | Neutralization by PGT-122, IC95 [11]: 0.217 µg/mL | Neutralization by PGT-122, IC50 [12]: 0.0337 µg/mL | Neutralization by PGT-122, IC80 [12]: 0.0929 µg/mL | Neutralization by PGT-122, IC90 [12]: 0.168 µg/mL | Neutralization by PGT-122, IC95 [12]: 0.289 µg/mL | Neutralization by PGT-122, IC50 [13]: > 10 µg/mL | Neutralization by PGT-122, IC80 [13]: > 10 µg/mL | Neutralization by PGT-122, IC90 [13]: > 10 µg/mL | Neutralization by PGT-122, IC95 [13]: > 10 µg/mL | Neutralization by PGT-122, IC50 [14]: 0.0089 µg/mL | Neutralization by PGT-122, IC80 [14]: 0.037 µg/mL | Neutralization by PGT-122, IC90 [14]: 0.0849 µg/mL | Neutralization by PGT-122, IC95 [14]: 0.181 µg/mL

5141_B17 (PGT-126) (antibody)
IC50 [15]: 0.115 µg/mL | IC80 [15]: 1.62 µg/mL | IC90 [15]: 6.91 µg/mL | IC95 [15]: > 10 µg/mL

5147_N06 (PGT-130) (antibody)
neutralization IC50 [16]: 0.0054 µg/mL | neutralization IC80 [16]: 0.0251 µg/mL | neutralization IC90 [16]: 0.0643 µg/mL | neutralization IC95 [16]: 0.164 µg/mL | neutralization IC50 [17]: > 10 µg/mL | neutralization IC80 [17]: > 10 µg/mL | neutralization IC90 [17]: > 10 µg/mL | neutralization IC95 [17]: > 10 µg/mL | neutralization IC50 [18]: 0.0345 µg/mL | neutralization IC80 [18]: 0.573 µg/mL | neutralization IC90 [18]: 2.88 µg/mL | neutralization IC95 [18]: > 10 µg/mL | neutralization IC50 [19]: 0.635 µg/mL | neutralization IC80 [19]: > 10 µg/mL | neutralization IC90 [19]: > 10 µg/mL | neutralization IC95 [19]: > 10 µg/mL | neutralization IC50 [20]: > 10 µg/mL | neutralization IC80 [20]: > 10 µg/mL | neutralization IC90 [20]: > 10 µg/mL | neutralization IC95 [20]: > 10 µg/mL | neutralization IC50 [21]: 0.0346 µg/mL | neutralization IC80 [21]: 0.751 µg/mL | neutralization IC90 [21]: 5.72 µg/mL | neutralization IC95 [21]: > 10 µg/mL | neutralization IC50 [22]: 0.0089 µg/mL | neutralization IC80 [22]: 0.0317 µg/mL | neutralization IC90 [22]: 0.0669 µg/mL | neutralization IC95 [22]: 0.134 µg/mL | neutralization IC50 [23]: > 10 µg/mL | neutralization IC80 [23]: > 10 µg/mL | neutralization IC90 [23]: > 10 µg/mL | neutralization IC95 [23]: > 10 µg/mL

PGT-121 (antibody)
Fold IC50 increase relative to wild-type [24]: 3.3 fold

PGV04 (antibody)
IC50, pseudovirus neutralization [25]: 0.032 µg/mL | IC50, pseudovirus neutralization [26]: 0.258 µg/mL | IC50, pseudovirus neutralization [27]: 1.26 µg/mL | IC50 (µg/mL), pseudovirus neutralization [28]: 1.9 µg/mL

VRC01 (antibody)
IC50 (µg/mL), pseudovirus neutralization [29]: 0.152 µg/mL | IC50 (µg/mL), pseudovirus neutralization [30]: 0.066 µg/mL | IC50, pseudovirus neutralization [31]: > 50 µg/mL | IC50 (µg/mL), pseudovirus neutralization [32]: 0.217 µg/mL | IC50 (µg/mL), pseudovirus neutralization [33]: 0.273 µg/mL | IC50 (µg/mL), pseudovirus neutralization [34]: 0.13 µg/mL | IC50, pseudovirus neutralization [35]: 0.644 µg/mL | IC50 (µg/mL), pseudovirus neutralization [36]: 0.285 µg/mL | IC50 (µg/mL), pseudovirus neutralization [37]: 0.499 µg/mL
